Assay: soluble fraction after stress (log2 fold change); higher = more stays soluble; pooled small domains, quantitative proteomics
Conditions: stress: pH 4
Outline: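 After pH 4 stress, pooled custom libraries of small protein domains were quantified with high-throughput quantitative proteomics. Aggregation propensity is taken from the fold change in each domain's soluble amount following the acid stress. The scale is log2, where higher values mean more stayed soluble.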

Row | Sequence | soluble fraction (log2)
1 | HMGGKWKLRILWHIHHGDTRFSTLKRGIPEISEKILAQQLRELEEHQLIKRRVVTVMPPHVVYEL | -0.518
2 | HMITTWAGKATTDVYGRVDANPKADAVLVIKTGWTVQVVGSKTAPDGGTWYKLIYNGKTMYANSKFIVK | 0.00106
3 | HMGTRHPLPYAFAKAHTVLLEDDGDRLLLHAAENSGPSALGEILRLYDVDALERETASTLANRIAVAYAG | 0.163
4 | HMKVTGSVQKKKGYYYIVVRLPTKNGTQYEQKQKWFNTKLKATPRNKTAAQVILAEKLTEYGGIV | ≥ 0.43
5 | HMGDKRPIAVGDYVKLEGQDTPGQVLSISGKNATVGFGMLKTTVKLDRLRHTMAKPQTGASAGVR | ≥ 0.43
6 | HMNYHDTLSYLMDAFGGADNLQKLLGVGPSALSNYRRREHLPLNQARKLSNIAPEFGFNLDPYTLKISVID | -0.588
7 | HMTIGPALAIGGNKVEMTQQGKIQVTNPQGKIKTLSQDEFKKQLVKNADKIEAGQDFEFKKD | 0.339
8 | HMTSSSGTITADWLNVRSGAGTNFSRLGSIAGGTRLTVISVHGEWYKITASFEGEIRTGYVHSQYVQMDGE | -1.59
9 | HMNTVSPAVSAQLRQELGGELNNANFQQLQQYLQAGQRDEAIVYLTSLGIESPRAVSIVNNAMDQIG | 0.00938
10 | HMGVENDGYVLPRELKKGDTVLIADLGKEATVLSPVDRNGNVEVLAGAAKTRVKLKNLRLIE | 0.179
11 | HMDFYPARVKWFNKSKGFGFANIFKSNDDIFLHIETLKRSGLSDLETGEAIVLTVTEGPRGKMADTILTWD | -0.411
12 | HMYEIEDIKEKLLDLLANSKTGFSGLEISNRLGINRITVSKYLNIFSAEGLIKQKNIGNVIIWFVEDGIE | -0.791
13 | HMDSVTMYATTGVNVRSGPSTSYSIVGGLDRGDKVTRIGTSGNWTKVVWGNGSAYVFSKYLQTGY | 0.232
14 | HMYMFSGQRLKSLRKEKKMSQEKLGSLLNISKVAVSNWENAKSFPTMDNLNELAKVLEVEPHYF | -0.41
15 | HMSNVDYSQFKKDTVVEHTKFGRGIIIQTSGDGEDKIAAIAFKGLGVKRFSLAIAAASLKIIGKNDE | 0.194
16 | HMSKASLFFLFNHKDELYIVDNNHVQDVPKPRELIRRFSTIEQIREHALHLGLPIANDTARE | -0.0573
17 | HMSIELEISADGNNYRVSGLSDGEDVRVYSVSGVQVFSGKAQGGEVVIPADNWNKGIYVISAGGSSVKVL | -0.312
18 | HMRPKAIFVDVDDTLVRSVGQTRIPMPAVIAHIRRLHDAGHQLYLWSSGGADYARASAEELGIGQYFQAFL | -0.32
19 | HMELKFIGEAVNNPKRPLIAILGGAKVSDKIGVIENLLTKADKILIGGAMMFTFLKAEGKNIGTSLVED | -0.0167
20 | HMRQPAAVEYSTFLDWVHASQVERVVFEGDTIRGVRVTGEGFVTYSPETDNTALIGELKKSRVQISATAP | 0.311
21 | HMQGLIGEQKAIQIALSRVPGAKPEHVRELKLDYDDGMQLYEGEIFYNFREYEFEINAVTGEVVGWEI | -0.839
22 | HMAPEEIPLDRVVRLVEQGRVESIVVTGERLEVTLQNGTVYGSTKENGVGFMETLDRYQVPLEQRDFSYEV | -0.72
23 | HMGLDERNLKLFAASLLEQAGKKITESTMTYLLDKTGSDMENIQNEVEKIIGYTMNHTVVTTEDIDAV | -0.745
24 | HMDQNDYMLTRIRNGQMRNKVSVSMPASKIKSAIAAVLKDEGYIENFALNDSSGKPSLIVNLKYYAGQPV | -0.0771
25 | HMSTTILSFQNRVVIETLHNEGRSLRYIANYLGFSKATIFNELHRLNSEYRAELAQADFERKVSQR | -0.53
26 | HMNPDMIAGVLKVPAAAGRLRSALFELGVVDDESYDDDGASRLTVTASQSDLERIVAQAGLVFEDVLVERR | -1.3
27 | HMQNRIVNTTQGLAADKRGLLVADETGHTTRPGIFASGDVVNGARTVVEAVAHSKIVAESMHQYMQ | ≥ 0.43
28 | HMDYYDTLGVPRNASQSDIKKAYKKQSMQHHPDRTGGDDTKFKDVNEAYQVLSNSEKKQMYDQFGTA | 0.0201

Row | Sequence | soluble fraction (log2)
29 | HMKSDELTKRRRLQIIEAAERSFRKRGFHATTLREIAAEFGMSVGHIYNYFSGKDAILEALIHQKIDD | -0.429
30 | HMNNIYFSPVVEENNKGLRLDKFLAASFPEFSRSQLQRLILEGNVSNDDVVIADNSQKVRVGDSFQVIVPE | -0.0304
31 | HMDIPITFEQLPAKAQAFVKQYFKIEEIASVWRDDDIHDQDYKVYFNDGSEIEFYANGDWEEV | -0.468
32 | HMANTSAVIKQPGLVKLFAQHFVRNGFNAMKAAEAAGFVRPSPTFVRNLADSKPVKDAISELLGPYNDA | 0.22
33 | HMTPDVHRGDTITVSLRAGAIRVRVPAKALEEGAAGGEIRVVNLTGGREYRVRVTGPGTAEAIL | 0.0112
34 | HMAVLEGPAGKLGIVRFEANRSFTGMGHERFSSADQAFGTKPAAVVASRLFATGQVAGVHVYGNIITVELA | ≥ 0.43
35 | HMPTLTPFDVARIENAINPRLNLETAAKLKPWIAAGYTAQETADGTGFSPDTVKKYAAIFRK | 0.146
36 | HMNVNSMIGKEGRVIEDIDNFNETGRIIVDGMEWTARAVNEQSITSGQKVVIREIQGVKAMVVPM | -0.299
37 | HMATHGRRAVIELREKIVSGELPGGTRLFEVSLAETLDISRTPVREALSRLAEEGLLDRLPNGGFVVRR | -1.39
38 | HMEVTYQETLRVLYNAIDKLPPQTKEIILIGLDGKDNNEIAATLNISVNTVKTLKKNAYKTLRELLVD | -0.601
39 | HMSELDSYIGARLRMRRLMLGMSQEALGEKLSLTFQQIQKYEKGTNRVSASRLYELAQVLDVPVQFFFDGA | -1.39
40 | HMQNYLLFEEAKNIVNTLNLTNEKDWSEFIKKDFTYKNQIPIFPNQYYKHKGWVDWNDWLGINK | -1.62
41 | HMWSGEPFLDELRHADTLLETDPEAALAEYRALADKGSAAAMMALGNAYASGSHVARDEGEAEHWYRRAA | -0.752
42 | HMIMEVDYGTFMKMTEENAIGRVQMDSTEIIFTDKENTQVYSTGIMYDPDLTQRLYDAGAVFA | -1.58
43 | HMGISGSDLEKMIRNILVNNTDVVETIKSGQDKKGKKQKFLQGLIMKEARGQTDPREAASLLAKLLE | 0.202
44 | HMEQVTMSNFLDKWGTSTKSPNAWYTSLSPMQKAEAKLLKEESGLTWNKWYEKNIYVGDGTN | -0.264
45 | HMTMSFSELLRGLRKSRGMSQAELATAVGLSQAQVSQIETGKLLPSPELIEKLAALYGIALGSA | 0.0703
46 | HMRRADRLLQLIQILRRHRRPVTGDVMARELEVSLRTVYRDIATLTIEGVPIRGEAGVGYVLGEGY | 0.211
47 | HMPRDYYAVLEVSVSSTPVQIRQAYQRLARRYSPDVNFLDRDTEALFEEIVEAYRVLSNPTARTLYDRG | -3.04
48 | HMSSVVARRARIATLVVETSVASQEELGRLLADEGITVTQATLSRDLDALGAVKVLSADGGTRYRIPGQ | -0.45
49 | HMDKMIFFKNKENNDDNQLVKIGALLIHAAKIDEDFSQEEENIIKQTLINFGAGNKNINEIIEKAKKME | 0.33
50 | HMKPSTETLYATARINVRAAADTSAEKLGSIEMGEAVVRTGTDGDWSIIEYNGSTGYVKSEYLTANAGDAT | -0.188
51 | HMGIDAIDNFVSKIIMKIEGLGESEVPTSTIGKFIMEGLQYLDTVAYVRYASVYKNFKEAKDFEQFVGSL | -0.566
52 | HMGVGTTDERLAVLNQIASRQTEALEKLGPNNPLVGLGQIRNTLSKMLEISGYPDSNQFFKQVPLDYEPPP | -0.0341
53 | HMTVKRNILQELLKTAFKHPEDFRPSKTFYGETGIGQKRFWALYYGHKAVTQKEYYAVADYLG | 0.202
54 | HMDLRIKEIMSERNVTSAWLAEKVGISKVAVSNIVTGKSSPSLDNLLKIADALNVSITTLIG | 0.305
55 | HMDDAFLNKEMLKQALENLNEREKKLIYLRFYEGLTQKEIADRLSLSQMHVSRLLNESLNKLRRKI | -0.0579

Source: the domain aggregation screens of Martell et al. (2025)
